Assay results as given in patent publication US20090203538A1 (INSTITUTE FOR ANTIBODIES, published 2009).

Columns and labels:
CD46 antigen = molecular target: T1, CD46 antigen (Homo sapiens (Human), UniProt P15529 35-392); assay: antigen assigned by the filing's classifying and identification method; details for this clone not given
T1 construct: Native protein on cancer cell lines; also called MCP (Membrane Co-factor Protein); gp45-70
T1 sequence: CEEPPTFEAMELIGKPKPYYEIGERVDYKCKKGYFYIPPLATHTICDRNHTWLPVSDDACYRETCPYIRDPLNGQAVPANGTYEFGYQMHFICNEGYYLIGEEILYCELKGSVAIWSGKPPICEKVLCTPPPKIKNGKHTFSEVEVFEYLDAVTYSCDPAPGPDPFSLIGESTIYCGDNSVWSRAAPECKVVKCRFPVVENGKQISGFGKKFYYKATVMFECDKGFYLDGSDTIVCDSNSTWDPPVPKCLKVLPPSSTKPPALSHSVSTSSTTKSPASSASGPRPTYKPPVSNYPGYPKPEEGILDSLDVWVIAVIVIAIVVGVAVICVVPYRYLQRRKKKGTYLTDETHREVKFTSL

CD44 = CD44 (Homo sapiens (Human), UniProt P16070 24-742); assay: as above
[1] = molecular target: T2, LAR (Leukocyte common Antigen-Related) (Homo sapiens (Human), UniProt P10586 30-1907, limits assumed); assay: as above
T2 construct: also called PTP-LAR; protein tyrosine phosphatase receptor type F (PTPRF)

[2] = molecular target: T3, HGFR (Hepatocyte growth factor receptor) (Homo sapiens (Human), UniProt P08581 25-1390); assay: as above
T3 construct: also called Met

[3] = molecular target: T4, ALCAM (Activated leukocyte cell adhesion molecule) (Homo sapiens (Human), UniProt Q13740 28-583); assay: flow cytometry histograms on various cell lines, antigen identified later
T4 construct: Native protein on cancer cell lines; also called CD166 antigen; CD166
T4 sequence: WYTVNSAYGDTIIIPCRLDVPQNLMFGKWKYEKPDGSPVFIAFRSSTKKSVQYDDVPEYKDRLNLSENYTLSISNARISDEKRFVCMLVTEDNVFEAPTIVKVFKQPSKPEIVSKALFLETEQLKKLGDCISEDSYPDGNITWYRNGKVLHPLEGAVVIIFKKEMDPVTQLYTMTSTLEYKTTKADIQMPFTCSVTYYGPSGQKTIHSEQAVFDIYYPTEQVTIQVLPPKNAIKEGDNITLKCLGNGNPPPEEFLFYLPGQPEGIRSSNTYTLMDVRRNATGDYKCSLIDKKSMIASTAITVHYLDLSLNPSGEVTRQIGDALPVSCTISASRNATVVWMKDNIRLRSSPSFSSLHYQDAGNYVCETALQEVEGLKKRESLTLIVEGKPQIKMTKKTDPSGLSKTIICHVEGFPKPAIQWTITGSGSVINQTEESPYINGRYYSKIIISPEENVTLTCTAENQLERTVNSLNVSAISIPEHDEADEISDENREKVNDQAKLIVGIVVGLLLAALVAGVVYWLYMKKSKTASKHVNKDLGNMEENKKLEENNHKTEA

CD73 = molecular target: T5, CD73 (Homo sapiens (Human), UniProt P21589 27-549, limits assumed); assay: antigen assigned by the filing's classifying and identification method; details for this clone not given
T5 construct: also called 5-prime-ribonucleotide phosphohydrolase
T5 sequence: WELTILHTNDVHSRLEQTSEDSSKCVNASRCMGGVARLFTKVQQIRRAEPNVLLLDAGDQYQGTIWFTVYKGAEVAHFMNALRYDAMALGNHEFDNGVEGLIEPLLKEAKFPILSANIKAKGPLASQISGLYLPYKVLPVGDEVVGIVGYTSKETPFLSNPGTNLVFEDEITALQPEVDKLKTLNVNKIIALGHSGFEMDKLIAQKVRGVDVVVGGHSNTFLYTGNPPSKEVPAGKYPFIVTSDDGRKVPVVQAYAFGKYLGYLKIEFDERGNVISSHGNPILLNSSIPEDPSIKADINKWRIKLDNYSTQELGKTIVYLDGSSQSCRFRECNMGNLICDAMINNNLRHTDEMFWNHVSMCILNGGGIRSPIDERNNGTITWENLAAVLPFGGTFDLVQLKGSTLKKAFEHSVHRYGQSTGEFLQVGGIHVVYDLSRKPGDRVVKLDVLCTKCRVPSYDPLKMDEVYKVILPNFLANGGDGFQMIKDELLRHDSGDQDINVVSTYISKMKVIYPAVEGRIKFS

[4] = molecular target: T4, ALCAM (Activated leukocyte cell …); assay: immunoprecipitation from biotin-labelled cell lysate with pp type antibody, mass spectrometry
EpCAM = molecular target: T6, EpCAM (Homo sapiens (Human), UniProt P16422 24-314); assay: antigen assigned by the filing's classifying and identification method; details for this clone not given
T6 chain: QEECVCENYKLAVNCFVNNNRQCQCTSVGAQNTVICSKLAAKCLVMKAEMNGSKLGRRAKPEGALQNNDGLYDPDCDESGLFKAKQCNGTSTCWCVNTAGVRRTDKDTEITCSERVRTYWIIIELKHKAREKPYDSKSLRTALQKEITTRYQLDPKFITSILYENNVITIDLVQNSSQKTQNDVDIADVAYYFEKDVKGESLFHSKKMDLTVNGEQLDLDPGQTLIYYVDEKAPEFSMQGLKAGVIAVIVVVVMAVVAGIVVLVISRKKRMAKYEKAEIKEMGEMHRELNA

T3 sequence (P08581 25-1390 L1272V limits assumed): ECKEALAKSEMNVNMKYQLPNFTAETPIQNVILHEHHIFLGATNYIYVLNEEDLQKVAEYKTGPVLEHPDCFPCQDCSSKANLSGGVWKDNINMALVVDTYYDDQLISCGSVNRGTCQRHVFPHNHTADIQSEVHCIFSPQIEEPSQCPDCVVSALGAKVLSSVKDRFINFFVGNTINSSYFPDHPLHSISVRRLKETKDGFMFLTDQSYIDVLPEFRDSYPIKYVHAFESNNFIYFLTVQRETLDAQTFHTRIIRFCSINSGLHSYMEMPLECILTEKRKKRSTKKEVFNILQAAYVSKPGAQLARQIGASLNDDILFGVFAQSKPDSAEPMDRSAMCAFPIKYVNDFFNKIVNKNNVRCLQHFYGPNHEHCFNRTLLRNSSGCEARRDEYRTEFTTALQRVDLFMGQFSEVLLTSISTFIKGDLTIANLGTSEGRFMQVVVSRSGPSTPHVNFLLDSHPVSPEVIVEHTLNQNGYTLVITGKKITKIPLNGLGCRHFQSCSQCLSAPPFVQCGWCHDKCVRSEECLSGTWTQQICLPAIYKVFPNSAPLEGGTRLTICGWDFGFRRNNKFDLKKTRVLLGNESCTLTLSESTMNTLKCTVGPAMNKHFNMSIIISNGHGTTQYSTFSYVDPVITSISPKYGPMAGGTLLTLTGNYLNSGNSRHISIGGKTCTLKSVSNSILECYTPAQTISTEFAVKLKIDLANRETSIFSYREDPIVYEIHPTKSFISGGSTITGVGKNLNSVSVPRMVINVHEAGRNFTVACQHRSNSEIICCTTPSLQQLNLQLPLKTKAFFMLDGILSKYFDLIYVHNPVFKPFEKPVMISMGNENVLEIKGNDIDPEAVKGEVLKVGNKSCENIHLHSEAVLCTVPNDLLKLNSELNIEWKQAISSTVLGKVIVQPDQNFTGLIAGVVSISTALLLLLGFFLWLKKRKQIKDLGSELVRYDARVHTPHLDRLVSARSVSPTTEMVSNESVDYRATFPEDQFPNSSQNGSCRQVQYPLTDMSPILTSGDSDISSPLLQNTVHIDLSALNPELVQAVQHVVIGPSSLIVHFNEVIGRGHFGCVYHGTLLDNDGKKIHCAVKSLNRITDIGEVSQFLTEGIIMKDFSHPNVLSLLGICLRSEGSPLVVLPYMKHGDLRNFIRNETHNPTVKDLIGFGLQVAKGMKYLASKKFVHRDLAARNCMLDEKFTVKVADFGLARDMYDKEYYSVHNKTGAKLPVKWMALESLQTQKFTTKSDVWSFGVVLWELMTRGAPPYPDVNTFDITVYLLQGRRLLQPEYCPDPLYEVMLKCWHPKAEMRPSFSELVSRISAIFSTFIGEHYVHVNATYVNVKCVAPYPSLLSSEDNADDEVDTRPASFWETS
CD44, sequence (P16070 24-742): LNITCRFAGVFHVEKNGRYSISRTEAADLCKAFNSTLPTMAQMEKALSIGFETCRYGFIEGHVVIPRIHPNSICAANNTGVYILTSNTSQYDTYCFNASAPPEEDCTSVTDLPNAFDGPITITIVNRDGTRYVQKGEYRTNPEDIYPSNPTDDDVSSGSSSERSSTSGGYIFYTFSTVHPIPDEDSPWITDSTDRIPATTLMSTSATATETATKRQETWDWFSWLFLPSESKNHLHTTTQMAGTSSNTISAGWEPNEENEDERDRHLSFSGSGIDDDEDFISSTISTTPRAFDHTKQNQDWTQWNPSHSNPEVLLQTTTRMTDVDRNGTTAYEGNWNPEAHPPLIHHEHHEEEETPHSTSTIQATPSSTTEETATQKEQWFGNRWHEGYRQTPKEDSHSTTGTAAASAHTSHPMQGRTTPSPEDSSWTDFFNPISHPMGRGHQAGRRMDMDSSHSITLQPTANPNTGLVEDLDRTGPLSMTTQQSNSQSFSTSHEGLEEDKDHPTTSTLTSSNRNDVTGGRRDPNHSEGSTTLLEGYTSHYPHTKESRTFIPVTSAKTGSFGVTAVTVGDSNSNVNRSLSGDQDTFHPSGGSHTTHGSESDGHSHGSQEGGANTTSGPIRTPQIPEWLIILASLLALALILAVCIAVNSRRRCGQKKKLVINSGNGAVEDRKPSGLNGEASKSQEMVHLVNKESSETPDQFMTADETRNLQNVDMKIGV

B1: 066-069 antibody (antibody, V domains shown)
VH: QVQLVQSEAEVKKPGESLKISCKGSGYSFTSYWIGWVRQMPGKGLEWMGIIYPGDSDTRYSPSFQGQVTISADKSISTAYLQWSSLKASDTAMYYCARTIGLGAFDIWGQGTTVTVSR
VL: SSELTQDPAVSVALGQTVRITCQGDSLRSYYASWYQQKPGQAPVLVIYGKNNRPSGIPDRFSGSSSGNTASLTITGAQAEDEADYYCNSRDSSGNHHYVFGTGTKVTVLG
notes: Clone of the scFv-CL-cp3 phage library
CD46 antigen
  binding result: binds

B2: 064-003 antibody (antibody, V domains shown)
VH: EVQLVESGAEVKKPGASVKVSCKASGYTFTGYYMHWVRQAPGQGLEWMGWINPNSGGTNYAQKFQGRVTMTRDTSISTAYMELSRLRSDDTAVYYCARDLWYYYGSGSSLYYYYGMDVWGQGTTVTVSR
VL: QSVLTQPPSVSGAPGQRVTISCTGSSSNIGAGYDVHWYQQLPGTAPKLLIYGNSNRPSGVPDRFSGSKSGTSASLAITGLQAEDEADYYCQSYDSSLSGVVFGGGTKLTVLG
notes: as for B1
CD44
  binding result: binds

B3: 065-030 antibody (antibody, V domains shown)
VH: QVQLQQWGAGLLKPSETLSLTCAAYGGSFSGYYWSWIRQPPGKGLEWIGEINHSGSTNYNPSLKSRVTISVDTSKNQFSLKLSSVTAADTAVYYCARTYYGSGSYQYNWFDPWGQGTLVTVSR
VL: QSVLTQPPSVSGAPGQRVTISCTGSSSNIGAGYDVHWYQQLPGTAPKLLIYGNSNRPSGVPDRFSGSKSGTSASLAITGLQAEDEADYYCQSYDSSLSGVVFGGGTKLTVLG
notes: as for B1
[1]
  binding result: binds

B4: 079-085 antibody (antibody, V domains shown)
VH: EVQLVESGGGLVQPGGSLRLSCAASGFTFSSYSMNWVRQAPGKGLEWVSYISSSSSTIYYADSVKGRFTISRDNAKNSLYLQMNSLRDEDTAVYYCAREGPRGSYYYFDYWGQGTLVTVSR
VL: NFMLTQPHSVSESPGKTVTISCTRSSGSIASNYVQWYQQRPGSAPTTVIYEDNQRPSGVPDRFSGSIDSSSNSASLTISGLKTEDEADYYCQSYDSSNWVFGGGTKLTVLG
notes: as for B1
[1]
  binding result: binds

B5: 066-019 antibody (antibody, V domains shown)
VH: QVQLQESGPGLVKPSQTLSLTCTVSGGSISSGDYYWSWIRQPPGKGLEWIGYIYYSGSTYYNPSLKSRVTISVDTSKNQFSLKLSSVTAADTAVYYCARGTGDLEWFDPWGQGTLVTVSR
VL: QSVLTQPPSVSGAPRQTVTISCSGSSSNIGQNSVTWYQRLPGEAPKLLIYYDDLLHSGVSDRFSGSKSGTSASLAISGLQSEDEAEYYCASWDDSLKGPVFGGGTKLTVLG
notes: as for B1
[1]
  binding result: binds

B6: 067-126 antibody (antibody, V domains shown)
VH: QVQLQESGPGLVKPSGTLSLTCAVSGGSISSSNWWSWVRQPPGKGLEWIGEIYHSGSTNYNPSLKSRVTISVDKSKNQFSLKLSSVTAADTAVYYCARGGSYYFDYWGQGTLVTVSR
VL: QSALTQPASVSGSPGQSITISCTGTISDVGGYDFVSWYQHHPGKAPKLLIYDVNNRPSGVSHRFSGSKSGNTASLTISGLQAEDEATYYCSSYSNRHSLIVFGSGTQVVGLG
notes: as for B1
[2]
  binding result: binds

B7: 067-133 antibody (antibody, V domains shown)
VH: QVQLQQWGAGLLKPSETLSLTCAVYGGSFSGYYWSWIRQPPGKGLEWIGEINHSGSTNYNPSLKSRVTISVDTSKNQFSLKLSSVTAADTAVYYCARGGGVEALNYGMDVWGQGTTVTVSR
VL: QSALTQPASVSGSPGQTITISCTGTISDVGGYDFVSWYQHHPGKAPKLLIYDVNNRPSGVSHRFSGSKSGNTASLTISGLQAEDEATYYCSSYSNRHSLIVFGSGTQVVGLG
notes: as for B1
[2]
  binding result: binds

B8: 067-287 antibody (antibody, V domains shown)
VH: QVQLQQWGAGLLKPSETLSLTCTVHGGSFDDYYWTWIRQPPGGGLEWIGEMNSGRTYNYNPFLESRASIDVDTFKKQFSLALRSVTAADTAVYYCARGAYVNYYYIDVWGDGTTVTVSR
VL: QSALTQPASVSGSPGQTITISCTGTISDVGGYDFVSWYQHHPGKAPKLLIYDVNNRPSGVSHRFSGSKSGNTASLTISGLQAEDEATYYCSSYSNRHSLIVFGSGTQVVGLG
notes: as for B1
[2]
  binding result: binds

B9: 035-234 antibody (antibody, V domains shown)
VH: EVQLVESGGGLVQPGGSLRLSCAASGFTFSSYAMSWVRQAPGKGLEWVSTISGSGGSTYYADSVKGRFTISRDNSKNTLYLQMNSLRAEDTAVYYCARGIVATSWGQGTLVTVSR
VL: SYELTQPPSVSVAPGQTARITCGGNKIGSKSVHWYQQKQGQAPVLVIYLDRDRPSGIPERFSGSNSGNTATLTITRVEAEDEADYYCHLWDSGSDQVFGGGTKLTVLG
notes: Clone of the scFv-CL-cp3 phage library; pp type (protein A fusion) used for immunoprecipitation
[3]
  binding result: binds

B10: 040-107 antibody (antibody, V domains shown)
VH: EVQLVESGGGVVQPGGSLRLSCAASGFNFDVYGMNWVRQVPGKGLEWVSLINGDGGLRYYADSVKGRFTVSRDNSRNSLYLQMNSLRSEDTALYYCVKGNFQQWGQGTLVTVSR
VL: SYVLTQPPSVSVAPGKTARITCGGNNIGSKSVHWYQQKPGQAPVLVIYYDSDRPSGIPERFSGSNSGNTATLTISRVEAGDEADYYCQVWDSSSDHVVFGGGTKLTVLG
notes: as for B9
[3]
  binding result: binds

B11: 065-358 antibody (antibody, V domains shown)
VH: EVQLVESGGGLVQPGGSLRLSCAASGFTFSSYSMNWVRQAPGKGLEWVSYISSSSSTIYYADSVKGRFTISRDNAKNSLYLQMNSLRDEDTAVYYCARDNLEGLDYWGQGTLVTVSR
VL: SYVLTQPPSVSVAPGKTARITCGGNNIGSKSVHWYQQKPGQAPVLVIYYDSDRPSGIPERFSGSNSGNTATLTISRVEAGDEADYYCQVWDSSSDHVVFGGGTKLTVLG
notes: as for B1
[1]
  binding result: binds

B12: 064-044 antibody (antibody, V domains shown)
VH: QVQLVQSGAEVKKPGASVKVSCKVSGYTLTELSMHWVRQAPGKGLEWMGGFDPEDGETIYAQKFQGRVTMTEDTSTDTAYMELSSLRSEDTAVYYCATDLDYYGSGSYAFDIWGQGTTVTVSR
VL: QSALTQPASVSGSPGQSITISCTGTSSDVGSYNLVSWYQQHPGKAPKLMIYEGSKRPSGVSNRFSGSKSGNTASLTISGLQAEDEADYYCSSYTSSSTWVFGGGTKLTVLG
notes: as for B1
[1]
  binding result: binds

B13: 067-213 antibody (antibody, V domains shown)
VH: EVQLVESGGGLVQPGRSLRLSCAASGFTFDDYAMHWVRQAPGKGLEWVSGISWNSGSIGYADSVKGRFTISRDNAKNSLYLQMNSLRAEDTALYYCVRSGSYNYYYYGMDVWGQGTTVTVSR
VL: not shown
notes: as for B1
CD73
  binding result: binds

B14: 041-118 antibody (antibody, V domains shown)
VH: EVQLVESGGGLVQPGGSLRLSCAASGFTFDDYAMHWVRQAPGKGLEWVSLISGDGGSTYYADSVKDRFTISRDNSKNSLYLQMNSLRAEDTAVYYCARGNYFDYWGQGTLVTVSR
VL: SYELTQPLSVSVALGQTARITCGGNNIGSKNVHWYQQKPGQAPVLVIYRDSNRPSGIPERFSGSNSGNTATLTISRAQAGDEADYYCQVWDSSVVFGGGTKLTVLG
notes: as for B9
[4]
  binding result: binds

B15: 067-153 antibody (antibody, V domains shown)
VH: QVQLQESGGGLVQPGGSLRLSCTTSGFTFTSYAMSWVRQAPGKGLEWVSSISGSGGITYYADSVKGRFTISRDNSKNTLYLQMNSLRAEDTAVYYCAKDRVLVPASSSYFDYWGQGTLVTVSR
VL: SSELTQDPAVSVALGQTVRITCQGDSLRSYYASWYQQKPGQAPVLVIYGKNNRPSGIPDRFSGSSSGNTASLTITGAQAEDEADYYCNSRDSSGNHVVFGGGTKLTVLG
notes: as for B1
EpCAM
  binding result: binds
